# Results from the DeepSol protein solubility set.
# Assay: soluble on expression in E. coli; label from the status in PepcDB or PDB records
row,Sequence,soluble on expression in E. coli
1,MGSDKIHHHHHHMRWEEVEPVVRELLDFQISSPEEFRTFINKVTDFFDRVREEHGWLYIKMTVNADKEEFAKAYEEFQKEIVAKLKPYEQKIKEKIVENEHFAPRGYEHMIKVIKNDVELFREENVPLQVKESILSRNYGTIVGNIEVDFEGEKKTLQQLSVYLRDPDRSTRELAWRKRYEGIWEVRDKLNKLFDELKEIRHQQALNAGFSNYRDYMHRLKSRFEYTPEDLYRFHEAVEKEVVPYLVERTKIRQRKLGIESVRPWDTAVDVDGKVLKPFSSVEEFMEKTERALKRLNPTFAERFRLMREKNLLDLENRKGKAPGGYNHTLPKTGAPFIFMNAVGQPGDVRTIFHELGHSMHSFETLSLPVFYRPHRMEVAELASMSLELISMEYWDEFYTDPEDLKKAKIEELEGALYFLPWCMIVDAFQHWIYTNPDHTPKERDEYFAYLMDRFNPGVDWSDLDEEKKTRWLFQLHIFEVPFYYIEYGIAQIGALAIYRNYIEDPEKTLKDYQRFLSVGCSMPVDEVYKTAGIELKFSRDYIREIVDFVAKQIEEIEK,not soluble
2,MACKNPKKFFPIRKSPVLRDGAFKGKLVLVTGGGTGIGKAIATTFAHLRATVVIAARRMEKLEQTARDITKITGGTCEPFQMDIKDPGMVSDAFDKIDMKFGKVPEILVNNAAGNFIMATELLSSNAYGTIIDIVLKGTFNVTTELGKRCIQNKTGASITSITAGYARAGAPFIVPSAVSKAGVETMTKSLATEWSKYGLRFNAVSPGPIPTKGAWGRLNSGEMGDIAEKMKFLNPEGRVGSPEEVANLVAFISSDHMSFLNGAIIDLDGGQQHFNHGSHMGDFLHSWDHKNWEDAENLIRGRTGKEKA,not soluble
3,MSLKSRTIKSIEVFPVQLPVKRTFNFASGSAGAQGSLAKLVFVKVTDSEGCHGWGEGRAHPQWSYETPESLVSTLRKHLAPAVIGLDIWDRRNLHARMHAAVGRGPSTGMPVAKAALDIAVHDLCARASGLPLRAFLGGSSEKTEVALSWTVAVKSPAEVGDDVAAGRSEGFAHFNFKVGVSLKQDEELVRAARTHVPADSFLWMDANQGVEFTRAVRLARVLEEHAVNVLEQPLAADQMHQMRHLRSQTAIPLAVDESSVSPGDYFAHAAEGLVDYFVLKLTRTGGIWPTLLQLGTATSAGHGLLVSGLSDSMVTKLAACQVAAAFGFTGPAALNGSQFLDDSVLFPTKSAVERRGIVHLDTSPGLGIEPDENALRAHAWKTDCVEGHHHHHH,soluble
4,MGSDKIHHHHHHMIHVGTCGFCEKQDKYFQDFSTVEIQQTFYKILQESTLKKWREKAPEGFVFSIKAFQGVTHPPNSPTWRRSNVKPSKNVGLLRPTNEVIHYWKITLNEAKILNARFILIQLPRSFKESEESFSNAERFFSIIDRGEFEIAVELRGWSERGIKKFVREFDVIDVVDPMVRVPLHGGGVNYYRLHGKYENGRIIYSYKYSDEELLKIRERVLSFHVEESYVYFNNSNMCEDAQRFKQLIMKF,not soluble
5,MGSDKIHHHHHHMRFMFLHPRLSLEGDPLGLMQLSASLKQRGHIVGLTLLTEDYIEAIRSFQPDMLGVSLMSSDAVMMHQVLNKVRMVFPDLFIIVGGPHPTFDPSCLMVLPVNAICVGEGDEALVEALEQYGREGHVEGIRNVGTVTTPVTLRPLVSDLDDLPFIDRDIVYAKNHIVRDFPLKTFAASRGCHFKCTYCFNHAYNAMYAGLGHVVRRRSVDHLIAEMRDVIARYPTSYIKISDDSFTYRVDSWLEEFAEKYPRLIGLPFYCLLRADVVTRDMVRLLREAGCRSVCMSIEAGAETVRRDVLNRRVSNEKIIESFDLFNEAGIAIYTNSMLAMPRATLADDIATLDLNIRCRPTLGHFTIMAPFPGTRIHDMCEKDGILPERCGGDGDIPTSTGELSKLTTYTDEEKNIQKNIVLLGPLVIRFPVLRGVFLRCLAKLPSNNILFKCIYTVTKNLLFKRIVPVRMSPLLMLRIAIAQVKAARTQVG,not soluble
6,TGILLANLGTPDAPTPEAVKRYLKQFLSDRRVVDTSRLLWWPLLRGVILPLRSPRVAKLYASVWMEDGSPLMVYSRQQQQALAQRLPDTPVALGMSYGSPSLESSVDELLAEHVDHIVVLPLYPQFSCSTVGAVWDELARILARKRSIPGISFIRDYADNHDYINALANSVRASFAKHGEPDLLLLSYHGIPQRYADEGDDYPQRCRTTTRELASALGMVPEKVMMTFQSRFGREPWLMPYTDETLKMLGEKGVGHIQVMCPGFAADCLETLEEIAEQNREVFLGAGGKKYEYIPALNATPEHIEMMANLV,not soluble
7,MGSDKIHHHHHHMKYKNLFFDLDDTIWAFSRNARDTFEEVYQKYSFDRYFDSFDHYYTLYQRRNTELWLEYGEGKVTKEELNRQRFFYPLQAVGVEDEALAERFSEDFFAIIPTKSGLMPHAKEVLEYLAPQYNLYILSNGFRELQSRKMRSAGVDRYFKKIILSEDLGVLKPRPEIFHFALSATASALRESLMIGDSWEADITGAHGVGMHQAFYNVTERTVFPFQPTYHIHSLKELMNLL,not soluble
8,MHRKISCGINDIKSEFFEAERMNNSVTVEVTRGNLVESRHQGLAVVVDGDGGVLFSAGDIERGIFPRSACKAMQALPLVESGATDAYGFGNRELALACSSHSGEDAHAELAAAMLAKAGRDVDTLECGAHWSSDQKTIIHQARTLEKPTALHNNCSGKHSGFICACCHTGTDPKGYVGYDHPLQRQIRATMESLTGAALGHDNCGVDGCSIPTYAVPLKGLAHGFAKMATGRGLEAERAKASRRLIEACMAEPFYVAGTGRACTKLMQIAPGKIFAKTGAEGVFIAALPNQGIAMAVKCEDGTTRAAEAMVTALLARYFDDGSAEQQALKGMANRQMRNWNGIHVGDISVIGLAAALEHHHHHH,soluble
9,MGSDKIHHHHHHMIGFDYGTSNCGVATMRNGQPHIIPLLGNESYIASNLYAPSRDVIANWLSQQLDSPQQANFIAERKAQLQKGQAALRELKFDGISSELLFGKSALAQYLEDPEEGYYIKSPKSFLGASGLATAQIQFFEDIVACMMSNVKNLTEQALQKEVTQTVIGRPINFQGLHGEESNRQAISVLTNAAKRVGFKDVEFQYEPVAAGFEFESSLTKETRVLVVDIGGGTSDCSMLLMSPDFTDNDNRNDHLLAHTGVRVAGNDFDIQLALQGIMPSFGMNSLLKTGKPMPTSSFYQALAINNINEQTEFYSAKNRRNLVQLSRDAKETAIIERLVAVHDHKLSYQLVNAAEQAKIALTEQSKQTIDLSDVTDGLCAEVTKETLRSANKRTLESIANIMQSAVQQAQCQPDVIFVTGGTAKSPVLSEFLQQQMPNVPIVVGDHFGSVTSGLARWAEKIYQ,not soluble
10,MAHHHHHHSLKDKPLKLTVEKLVYGGYGFSRLNGKAVFVRFASPKELVEAKVVKEKKDYTEAVVTKVLISSPARRKAPCPYYGECGGCQIQHLNYEEQLRSKKDILLESLERIGKIKEVPYEGEIPSKKEFNYRVRVQFKIQENRVGFYRWDVKEVVDVEECLLAHERINELIPHIREVLKVIKDLQEVHVNYSPTRDEATLKFVTITHTDEKLLQNILENVLPEWVVGIGDYGKVGNSLVKRYKVGREHIFMDVGKWQYRVSNDSFFQVNYTLWEDFLKEVLDFSESYKKGLDLHCGVGFFTIPLSEQGNFIEGADANPSAIKDAEYNAKINNRDNVIFEEATAFKHLKRRIGEVINLVVVDPPRSGLLREERDLLLKNKPDKIVYISCNPTTFARDLKILTKGGYELKRLKLIDNFPQTYHIESIALLEVKDEG,soluble
11,EYKPKKGLASCWLSSKSHTLLNEEDFFTKDERIGIRKDYEGATNDDAFFCQRYYRFKNFKEVEGEKTKVCKQPPVREHDFCFAVLLETHRDIKHEELNKRIVYLGGERQPFLMDLMEVSEETFKLNIESSTLTSDEKHYTVVLLSDAMIEPKLLEGVKFASTEVKDFACLLTHVGTRRFYNKKKKREEQNIEEVETALSHQHELYARGSVFYFDTKEQANQFCEDLEKVPNFHTIGYNHAIIIEPTKTKK,not soluble
12,MGSDKIHHHHHHMKVFVTGATGFIGASIARELLKDGCHVRVLARPGSDRRNLDGLDVEVCEGDLCSPESLDRGVKGCEVLYHAAADYRLWTRNPAAMYAANVEGTRHVLDAALRHGVSRVVYTSSVGTLGNPGDGTPGTEATPVTFADMVGDYKKSKFLAEREAETFLARGLPLVIVNPSTPVGPHDVKPTPTGKIIVDFLNRAMPAYLDTGLNIIDVEDCAQGHILAAQHGRIGEKYILGHENLTLRQIFSLLETVTGLAAPKVRLPYLPILAAAYANEALSRITGREPLIPLAGVQMARKFMYFDSSKAVKELGLPQRPAVEALGRAVEWFRANGYVR,not soluble
